The values below come from article PMC11746154 (2023).

B1: Gal4AD-Rec104 [S. cerevisiae] / LexA-Rec102 [S. cerevisiae] (parent complex)
chain 1: MSIEEEDTNKITCTQDFLHQYFVTERVSIQFGLNNKTVKRINKDEFDKAVNCIMSWTNYPKPGLKRTASTYLLSNSFKKSATVSLPFILGDPVCMPKRVESNNNDTCLLYSDTLYDDPLIQRNDQAGDEIEDEFSFTLLRSEVNEIRPISSSSTAQILQSDYSALMYERQASNGSIFQFSSP
chain 2: MARDITFLTVFLESCGAVNNDEAGKLLSAWTSTVRIEGPESTDSNSLYIPLLPPGMLKIKLNFKMNDRLVTEEQELFTKLREIVGSSIRFWEEQLFYQVQDVSTIENHVILSLKCTILTDAQISTFISKPRELHTHAKGYPEIYYLSELSTTVNFFSKEGNYVEISQVIPHFNEYFSSLIVSQLEFEYPMVFSMISRLRLKWQQSSLAPISYALTSNSVLLPIMLNMIAQDKSSTTAYQILCRRRGPPIQNFQIFSLPAVTYNK

In the first test the parent is B1. The test is described as follows: Y2H β-galactosidase assay; parent: 0.97; read off a plot.
As to chain 2 MARDITFLTVFLESCGAVNNDEAGKLLSAWTSTVRIEGPESTDSNSLYIPLLPPGMLKIKLNFKMNDRLVTEEQELFTKLREIVGSSIRFWEEQLFYQVQDVSTIENHVILSLKCTILTDAQISTFISKPRELHTHAKGYPEIYYLSELSTTVNFFSKEGNYVEISQVIPHFNEYFSSLIVAQLEFEYPMVFSMISRLRLKWQQSSLAPISYALTSNSVLLPIMLNMIAQDKSSTTAYQILCRRRGPPIQNFQIFSLPAVTYNK [chain 2 S182A], the response was roughly 0.62 normalized β-gal units.

For the variant chain 2 MARDITFLTVFLESCGAVNNDEAGKLLSAWTSTVRIEGPESTDSNSLYIPLLPPGMLKIKLNFKMNDRLVTEEQELFTKLREIVGSSIRFWEEQLFYQVQDVSTIENHVILSLKCTILTDAQISTFISKPRELHTHAKGYPEIYYLSELSTTVNFFSKEGNYVEISQVIPHFNEYFSSLIVSALEFEYPMVFSMISRLRLKWQQSSLAPISYALTSNSVLLPIMLNMIAQDKSSTTAYQILCRRRGPPIQNFQIFSLPAVTYNK [chain 2 Q183A], the response is roughly 0.01 normalized β-gal units.

In the case of chain 2 MARDITFLTVFLESCGAVNNDEAGKLLSAWTSTVRIEGPESTDSNSLYIPLLPPGMLKIKLNFKMNDRLVTEEQELFTKLREIVGSSIRFWEEQLFYQVQDVSTIENHVILSLKCTILTDAQISTFISKPRELHTHAKGYPEIYYLSELSTTVNFASKEGNYVEISQVIPHFNEYFSSLIVSQLEFEYPMVFSMISRLRLKWQQSSLAPISYALTSNSVLLPIMLNMIAQDKSSTTAYQILCRRRGPPIQNFQIFSLPAVTYNK [chain 2 F156A], the response was roughly 1.5 normalized β-gal units.

For chain 2 MARDITFLTVALESCGAVNNDEAGKLLSAWTSTVRIEGPESTDSNSLYIPLLPPGMLKIKLNFKMNDRLVTEEQELFTKLREIVGSSIRFWEEQLFYQVQDVSTIENHVILSLKCTILTDAQISTFISKPRELHTHAKGYPEIYYLSELSTTVNFFSKEGNYVEISQVIPHFNEYFSSLIVSQLEFEYPMVFSMISRLRLKWQQSSLAPISYALTSNSVLLPIMLNMIAQDKSSTTAYQILCRRRGPPIQNFQIFSLPAVTYNK [chain 2 F11A], the response is roughly 0.9 normalized β-gal units.

Take chain 2 MARDITFATVFLESCGAVNNDEAGKLLSAWTSTVRIEGPESTDSNSLYIPLLPPGMLKIKLNFKMNDRLVTEEQELFTKLREIVGSSIRFWEEQLFYQVQDVSTIENHVILSLKCTILTDAQISTFISKPRELHTHAKGYPEIYYLSELSTTVNFFSKEGNYVEISQVIPHFNEYFSSLIVSQLEFEYPMVFSMISRLRLKWQQSSLAPISYALTSNSVLLPIMLNMIAQDKSSTTAYQILCRRRGPPIQNFQIFSLPAVTYNK [chain 2 L8A]: the response was roughly 1.4 normalized β-gal units.

With chain 2 MARDITFLTVFLESCGAVNNDEAGKLLSAWTSTVRIEGPESTDSNSLYIPLLPPGMLKIKLNFKMNDRLVTEEQELFTKLREIVGSSIRFWEEQLFYQVQDVSTIENHVILSLKCTILTDAQISTFISKPRELHTHAKGYPEIYYLSELSTTVNFFSKEGNYVEISQVIPHFNEYFSSAIVSQLEFEYPMVFSMISRLRLKWQQSSLAPISYALTSNSVLLPIMLNMIAQDKSSTTAYQILCRRRGPPIQNFQIFSLPAVTYNK [chain 2 L179A], the response was roughly 0.1 normalized β-gal units.

chain 2 MARDITFLTAFLESCGAVNNDEAGKLLSAWTSTVRIEGPESTDSNSLYIPLLPPGMLKIKLNFKMNDRLVTEEQELFTKLREIVGSSIRFWEEQLFYQVQDVSTIENHVILSLKCTILTDAQISTFISKPRELHTHAKGYPEIYYLSELSTTVNFFSKEGNYVEISQVIPHFNEYFSSLIVSQLEFEYPMVFSMISRLRLKWQQSSLAPISYALTSNSVLLPIMLNMIAQDKSSTTAYQILCRRRGPPIQNFQIFSLPAVTYNK [chain 2 V10A]: the response is roughly 0.6 normalized β-gal units.

In a further test the parent is B1. The description is as above. The source holds these as a separate data set.
For chain 1 MSIEEEDTNKITCTQDFAHQYFVTERVSIQFGLNNKTVKRINKDEFDKAVNCIMSWTNYPKPGLKRTASTYLLSNSFKKSATVSLPFILGDPVCMPKRVESNNNDTCLLYSDTLYDDPLIQRNDQAGDEIEDEFSFTLLRSEVNEIRPISSSSTAQILQSDYSALMYERQASNGSIFQFSSP [chain 1 L18A], the response was roughly 0.75 normalized β-gal units.

Regarding chain 1 MSIEEEDTNKITCTQDALHQYFVTERVSIQFGLNNKTVKRINKDEFDKAVNCIMSWTNYPKPGLKRTASTYLLSNSFKKSATVSLPFILGDPVCMPKRVESNNNDTCLLYSDTLYDDPLIQRNDQAGDEIEDEFSFTLLRSEVNEIRPISSSSTAQILQSDYSALMYERQASNGSIFQFSSP [chain 1 F17A], the response is roughly 0.8 normalized β-gal units.

Consider chain 1 MSIEEEDTNKITCTQDFLHQYFVTERVSIQAGLNNKTVKRINKDEFDKAVNCIMSWTNYPKPGLKRTASTYLLSNSFKKSATVSLPFILGDPVCMPKRVESNNNDTCLLYSDTLYDDPLIQRNDQAGDEIEDEFSFTLLRSEVNEIRPISSSSTAQILQSDYSALMYERQASNGSIFQFSSP [chain 1 F31A], for which the response is roughly 1.6 normalized β-gal units.

chain 1 MSIEEEDTNAITCTQDFLHQYFVTERVSIQFGLNNKTVKRINKDEFDKAVNCIMSWTNYPKPGLKRTASTYLLSNSFKKSATVSLPFILGDPVCMPKRVESNNNDTCLLYSDTLYDDPLIQRNDQAGDEIEDEFSFTLLRSEVNEIRPISSSSTAQILQSDYSALMYERQASNGSIFQFSSP [chain 1 K10A]: the response is roughly 0.83 normalized β-gal units.

In the case of chain 1 MSIEEEDTNKITCTQDFLHQYFVTERVSIQFGLNNKTVKRINKDEFDKAVNCAMSWTNYPKPGLKRTASTYLLSNSFKKSATVSLPFILGDPVCMPKRVESNNNDTCLLYSDTLYDDPLIQRNDQAGDEIEDEFSFTLLRSEVNEIRPISSSSTAQILQSDYSALMYERQASNGSIFQFSSP [chain 1 I53A], the response was roughly 1.1 normalized β-gal units.
